Laboratory results from article PMC2597217.

B1: IRE (dsDNA)
DNA 1: TGGTTTGTTTTGCTTG
DNA 2: CAAGCAAAACAAACCA
B2: DBE1 (dsDNA)
DNA 1: TGGTTTGTTTACCTTG
DNA 2: CAAGGTAAACAAACCA
B3: DBE2 (dsDNA)
DNA 1: TCTTGTTTACATTTTG
DNA 2: CAAAATGTAAACAAGA

Assays:
FoxO1 DBD 151-256 = FoxO1 DBD 151-256 (human, UniProt Q12778 151-256); experiment: EMSA
FoxO1 DBD 151-266 [1] = target: T1, FoxO1 DBD 151-266 (human, UniProt Q12778 151-266); experiment: crystal structure
FoxO1 DBD 151-266 [2] = target: T1, FoxO1 DBD 151-266; experiment: EMSA

T1 sequence (Q12778 151-266): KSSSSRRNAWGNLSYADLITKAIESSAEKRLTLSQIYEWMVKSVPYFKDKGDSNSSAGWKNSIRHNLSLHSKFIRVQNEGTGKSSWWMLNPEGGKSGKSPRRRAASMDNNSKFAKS
Chain of FoxO1 DBD 151-256 (Q12778 151-256): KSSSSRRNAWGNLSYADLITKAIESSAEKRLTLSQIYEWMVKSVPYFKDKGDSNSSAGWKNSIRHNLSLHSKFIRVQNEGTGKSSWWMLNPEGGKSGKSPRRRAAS

Binder | binding result (FoxO1 DBD 151-256) | binding result (FoxO1 DBD 151-266 [1]) | binding signal (FoxO1 DBD 151-266 [2])
B1 | binds | binds | 
B2 |  |  | 2 fold affinity vs IRE
B3 |  |  | 5 fold affinity vs DBE1
